Assays:
DNMT1 [1] = biological target: T1, DNMT1 (human, UniProt P26358 1-1616); test: EMSA; 100 mM KCl; 50 mM Tris-HCl pH 7.5, 100 mM KCl (or LiCl), 2.5 mM MgCl2, 0.1 mM ZnCl2, 2 mM BME, 0.05% NP40, 5% glycerol, 0.1 mg/mL BSA, 0.1 mg/mL yeast tRNA; 30 C 1 h; 1% agarose gel in 1x TBE at 4 C; conditions: protein: recombinant, tags: MBP tag cleaved with PreScission protease; for Kd: label: 5' 32P
DNMT1 [2] = biological target: T1, DNMT1; test: EMSA; 100 mM KCl; undetectable; 50 mM Tris-HCl pH 7.5, 100 mM KCl (or LiCl), 2.5 mM MgCl2, 0.1 mM ZnCl2, 2 mM BME, 0.05% NP40, 5% glycerol, 0.1 mg/mL BSA, 0.1 mg/mL yeast tRNA; 30 C 1 h; 1% agarose gel in 1x TBE at 4 C; conditions: protein: recombinant; tags: MBP tag cleaved with PreScission protease; label: 5' 32P; unstructured
DNMT1 [3] = biological target: T1, DNMT1; test: EMSA; 100 mM KCl; 50 mM Tris-HCl pH 7.5, 100 mM KCl (or LiCl), 2.5 mM MgCl2, 0.1 mM ZnCl2, 2 mM BME, 0.05% NP40, 5% glycerol, 0.1 mg/mL BSA, 0.1 mg/mL yeast tRNA; 30 C 1 h; 1% agarose gel in 1x TBE at 4 C; conditions: protein: recombinant; tags: MBP tag cleaved with PreScission protease; label: 5' 32P; one pUG-fold in K+
DNMT1 [4] = biological target: T1, DNMT1; test: as above; conditions: protein: recombinant; tags: MBP tag cleaved with PreScission protease; label: 5' 32P; canonical G4

T1 sequence (P26358 whole entry): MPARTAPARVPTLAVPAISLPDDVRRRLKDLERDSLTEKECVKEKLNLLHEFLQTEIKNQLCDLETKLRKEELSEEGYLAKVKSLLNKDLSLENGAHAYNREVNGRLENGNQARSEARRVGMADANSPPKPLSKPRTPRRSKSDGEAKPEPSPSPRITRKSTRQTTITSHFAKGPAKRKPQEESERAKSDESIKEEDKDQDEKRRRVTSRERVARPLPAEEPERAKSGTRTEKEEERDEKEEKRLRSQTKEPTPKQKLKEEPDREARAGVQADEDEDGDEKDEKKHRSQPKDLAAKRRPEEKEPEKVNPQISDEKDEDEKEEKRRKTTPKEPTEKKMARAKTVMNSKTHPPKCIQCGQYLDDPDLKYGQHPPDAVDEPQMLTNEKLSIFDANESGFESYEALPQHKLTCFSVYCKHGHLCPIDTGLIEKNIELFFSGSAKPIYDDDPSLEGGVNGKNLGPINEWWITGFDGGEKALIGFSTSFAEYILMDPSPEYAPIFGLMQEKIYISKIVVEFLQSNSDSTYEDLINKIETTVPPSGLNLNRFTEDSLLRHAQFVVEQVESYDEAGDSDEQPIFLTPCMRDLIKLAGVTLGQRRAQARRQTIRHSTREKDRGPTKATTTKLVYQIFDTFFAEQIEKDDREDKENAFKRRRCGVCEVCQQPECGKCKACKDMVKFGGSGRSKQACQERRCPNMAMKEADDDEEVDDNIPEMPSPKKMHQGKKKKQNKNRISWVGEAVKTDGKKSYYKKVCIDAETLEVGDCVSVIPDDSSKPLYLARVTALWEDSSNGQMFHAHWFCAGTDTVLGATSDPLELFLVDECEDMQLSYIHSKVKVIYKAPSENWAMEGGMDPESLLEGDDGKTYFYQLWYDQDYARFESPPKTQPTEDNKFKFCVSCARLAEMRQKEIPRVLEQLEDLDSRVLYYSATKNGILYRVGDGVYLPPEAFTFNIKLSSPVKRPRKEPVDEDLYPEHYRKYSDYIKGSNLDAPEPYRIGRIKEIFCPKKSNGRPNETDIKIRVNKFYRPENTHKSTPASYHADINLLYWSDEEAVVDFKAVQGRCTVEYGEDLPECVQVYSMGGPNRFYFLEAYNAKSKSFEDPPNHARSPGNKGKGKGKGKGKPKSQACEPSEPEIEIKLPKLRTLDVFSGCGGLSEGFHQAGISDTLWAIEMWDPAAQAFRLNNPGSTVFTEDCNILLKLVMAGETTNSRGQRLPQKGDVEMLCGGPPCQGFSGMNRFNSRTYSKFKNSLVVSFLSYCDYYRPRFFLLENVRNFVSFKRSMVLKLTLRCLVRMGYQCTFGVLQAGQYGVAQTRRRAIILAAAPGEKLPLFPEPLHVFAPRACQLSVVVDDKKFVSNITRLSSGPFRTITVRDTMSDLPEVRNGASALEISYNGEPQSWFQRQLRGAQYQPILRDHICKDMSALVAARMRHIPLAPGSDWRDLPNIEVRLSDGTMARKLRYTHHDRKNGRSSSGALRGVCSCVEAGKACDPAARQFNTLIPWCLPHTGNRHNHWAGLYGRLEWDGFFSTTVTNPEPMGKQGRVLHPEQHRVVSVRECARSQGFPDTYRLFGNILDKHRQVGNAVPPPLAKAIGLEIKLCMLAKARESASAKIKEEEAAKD

GUGUGUGUGUGUGUGUGUGUGUGUGUGUGUGUGUGUGUGU (structured_RNA) [(GU)20]
Kd (DNMT1 [1]; pUG-fold (noncanonical G4) in K+): 69 nM

B1: (GU)30 (structured_RNA)
RNA: GUGUGUGUGUGUGUGUGUGUGUGUGUGUGUGUGUGUGUGUGUGUGUGUGUGUGUGUGUGU
Kd (DNMT1 [1]; pUG-fold, possibly two): 13 nM

AAAAAAAAAAAAAAAAAAAAAAAAAAAAAAAAAAAAAAAA (ssRNA) [(A)40]
binding result (DNMT1 [2]): no binding

B2: Hemimethylated DNA substrate (dsDNA)
DNA 1: TACGTATCCGTATCCGGTTACGTATCCGAATCCGTACCGT
DNA 2: ACGGTACGGATTCGGATACGTAACCGGATACGGATACGTA
modifications: 5mC at strand 1 positions 3,9,15,21,27,33,38
binding result (DNMT1 [1]; label: 32P end label, blunt): binds

GUGUGUGUGUGUGUGUGUGUGUGU (structured_RNA) [(GU)12]
binding signal (DNMT1 [3]): 5 fold weaker than (GU)20

GGAAGGAAGGAAGGAAGGAAGGAAGGAAGGAAGGAAGGAA (structured_RNA) [(GGAA)10]
binding signal (DNMT1 [4]): 3 fold weaker than (GU)20
